Measured values taken from patent publication US20240018226A1 (PROTHENA BIOSCIENCES, published 2024).

Columns and labels:
[1] = target: T1, 3R2N-tau (Swiss-Prot P10636-5) (human, UniProt P10636 2-758); experiment: surface plasmon resonance
T1 construct: The construct used in SPR is not described

[2] = target: T2, 4R2N-tau (Swiss-Prot P10636-8) (human, UniProt P10636 2-758); experiment: surface plasmon resonance
T2 construct: The construct used in SPR is not described; also called 441 amino acid tau protein
T2 sequence (P10636 other isoform, or with tags, fused parts or gaps limits assumed): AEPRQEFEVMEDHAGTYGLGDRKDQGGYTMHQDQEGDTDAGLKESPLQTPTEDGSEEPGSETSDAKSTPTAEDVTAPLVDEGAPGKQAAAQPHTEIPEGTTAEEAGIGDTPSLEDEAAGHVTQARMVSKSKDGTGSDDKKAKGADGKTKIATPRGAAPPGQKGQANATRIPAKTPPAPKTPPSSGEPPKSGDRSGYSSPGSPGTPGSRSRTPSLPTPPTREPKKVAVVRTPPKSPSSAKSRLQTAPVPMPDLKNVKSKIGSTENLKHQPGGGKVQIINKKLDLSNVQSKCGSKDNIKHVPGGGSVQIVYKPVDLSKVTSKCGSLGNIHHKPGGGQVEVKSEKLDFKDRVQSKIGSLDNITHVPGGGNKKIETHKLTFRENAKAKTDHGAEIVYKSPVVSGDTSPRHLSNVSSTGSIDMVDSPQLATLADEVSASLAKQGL

T1 sequence (P10636 other isoform, or with tags, fused parts or gaps limits assumed): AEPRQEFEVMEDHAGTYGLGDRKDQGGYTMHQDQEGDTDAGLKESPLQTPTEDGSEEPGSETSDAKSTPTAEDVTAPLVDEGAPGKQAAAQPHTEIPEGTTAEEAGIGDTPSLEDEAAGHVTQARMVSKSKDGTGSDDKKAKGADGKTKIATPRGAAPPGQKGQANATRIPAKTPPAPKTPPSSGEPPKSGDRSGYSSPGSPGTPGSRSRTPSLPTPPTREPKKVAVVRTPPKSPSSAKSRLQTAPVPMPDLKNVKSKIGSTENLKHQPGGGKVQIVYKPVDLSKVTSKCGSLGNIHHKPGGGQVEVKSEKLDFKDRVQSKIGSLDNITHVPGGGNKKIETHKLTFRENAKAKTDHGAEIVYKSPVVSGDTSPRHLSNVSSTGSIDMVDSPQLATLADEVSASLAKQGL

- Kd [1]: 0.154 nM
- Kd [2]: 0.206 nM
B1: hu3D6VHv1bA11/L2-DIM4 (antibody, human IgG1, kappa, V domains shown)
VH: EVQLVQSGAEVVKPGATVKISCKASGFNIKDYYLHWVRQRPGQGLEWIGWIDPENGDTVYDPKFQGRATITADTSTDTAYLQLGSLTSEDTAVYFCSTLDFWGQGTLVTVSS
VL: DVVMTQSPLSLPVTLGQPASISCKSSQSLLDSDGKTYLNWLQQRPGQSPRRLIYLVGKRDSGVPDRFSGSGSGTDFTLKISRVEAEDVGVYYCWQGTHFPYTFGGGTKLEIKR
notes: also called PRX005; humanized 3D6 variant
